Experimental findings from the supplement of paper PMC10567573 are described below.

± gives the standard deviation.

A short description of the data set: protein stability index of a GFP-peptide fusion (GPS, HEK-293T) (PSI 1-6); higher = more stable. Conditions: c terminus: a fixed tail appended.
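Further: 24-mer peptide tiles fused after GFP, lentivirally expressed, FACS-sorted into six equal bins by GFP/DsRed ratio, decoded by Illumina sequencing, PSI is the read-weighted mean bin number.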

On to LEGVVSQIDAVGSKLKMLERKGWL [PKD2L1], for which the protein stability index runs as follows: (treatment: DMSO) 2.63 ± 0.37; (treatment: MLN4924 1 uM, 8 h) 2.77 ± 0.24.

For LELLGASFANDRENYDIIKTYHYL [FEM1B], the protein stability index by setting is: (treatment: DMSO) 2.32 ± 0.43; (treatment: MLN4924 1 uM, 8 h) 2.17 ± 0.36.

Turning to LEQASSHIGNSTQATVRDAVVGRP [ATL3], the protein stability index is, setting by setting: (treatment: DMSO) 5.03 ± 0.26; (treatment: MLN4924 1 uM, 8 h) 5.03 ± 0.35.

Regarding LEQKTQESQKKKQQDDSDEYDDDD [ZNF207], the protein stability index is, setting by setting: (treatment: DMSO) 5.62 ± 0.12; (treatment: MLN4924 1 uM, 8 h) 5.61 ± 0.34.

Sequence LFEGMIWFLVPISSVICNDITAYL [CDS1] yielded a protein stability index (treatment: DMSO) of 3.91 ± 0.42 and a protein stability index (treatment: MLN4924 1 uM, 8 h) of 3.38 ± 0.86.

Take LFSLNVISLTCVSVAFAVAWFLPM [SLC19A2]: the protein stability index worked out at 3.12 ± 0.48 (treatment: DMSO) and 2.8 ± 0.23 (treatment: MLN4924 1 uM, 8 h).

On to LGERRAEPHSLLHLSRLCVRHNLG [SPSB2], for which the protein stability index was determined as 3.35 ± 0.22 (treatment: DMSO) and 3.3 ± 0.23 (treatment: MLN4924 1 uM, 8 h).

For LGLPYYETSVFDQFGIKDVFDNAI [RHOBTB1], the protein stability index by setting is: (treatment: DMSO) 2.34 ± 0.28; (treatment: MLN4924 1 uM, 8 h) 2.45 ± 0.42.

With LGLTNQSRRYNRKEPAEFNGDGAF [ZNF649], the protein stability index (treatment: DMSO) was 3.96 ± 0.29 and the protein stability index (treatment: MLN4924 1 uM, 8 h) stood at 4.26 ± 0.37.

LGPAFRGLKGRTLYPAVSAVWGQC [SPSB2] gave a protein stability index (treatment: DMSO) of 2.17 ± 0.22 and a protein stability index (treatment: MLN4924 1 uM, 8 h) of 2.16 ± 0.18.

Regarding LGSFESPANSETSDLTLYLVVAVA [PCDHGA10], the protein stability index (treatment: DMSO) was determined as 2.66 ± 0.87 and the protein stability index (treatment: MLN4924 1 uM, 8 h) turned out to be 2.67 ± 0.48.

Take LGVCASGLLIYRDRLRINRFAWPK [EPB41L3]: the protein stability index is 2.06 ± 0.046 (treatment: DMSO) and 2.4 ± 0.26 (treatment: MLN4924 1 uM, 8 h).

For LHNLLLHQEGAKMAVRLAGGLQKM [CTNNB1], the protein stability index by setting is: (treatment: DMSO) 2.02 ± 0.22; (treatment: MLN4924 1 uM, 8 h) 2.36 ± 0.26.

Consider LHVAAHYGRDSFVRLLLEFKAEVD [ASB7], for which the protein stability index reads like this: (treatment: DMSO) 2.15 ± 0.14; (treatment: MLN4924 1 uM, 8 h) 2.15 ± 0.37.

As for LIFSVQPKSLVRLSLEAVICFKEM [KLHDC2], the protein stability index stood at 1.88 ± 0.17 (treatment: DMSO) and 2.04 ± 0.31 (treatment: MLN4924 1 uM, 8 h).

Turning to LIGRPGNKTQQVIHIIDFGLAKEY [CSNK1G3], the protein stability index runs as follows: (treatment: DMSO) 2.38 ± 0.69; (treatment: MLN4924 1 uM, 8 h) 2.4 ± 0.43.

Consider LKCDLQERLLCPSLLAGTADGSLR [M1AP], for which the protein stability index stood at 2.55 ± 0.32 (treatment: DMSO) and 2.5 ± 0.24 (treatment: MLN4924 1 uM, 8 h).

In turn, LKDLLLQVGRGLRYIHSMSLVHMD [WEE1] displayed a protein stability index (treatment: DMSO) of 2.64 ± 0.74 and a protein stability index (treatment: MLN4924 1 uM, 8 h) of 2.85 ± 0.69.

For LKPTLTIIKTEKVDLELFPSPDME [ETS1], the protein stability index by setting is: (treatment: DMSO) 3.4 ± 0.18; (treatment: MLN4924 1 uM, 8 h) 3.21 ± 0.32.

In the case of LKQNFSKSWHDMQTTTAYKKTHET [TPD52L1], the protein stability index worked out at 3.6 ± 0.25 (treatment: DMSO) and 3.96 ± 0.24 (treatment: MLN4924 1 uM, 8 h).

Take LKSQPLPLRSSLPISLQATPATPA [TFE3]: the protein stability index amounted to 3.92 ± 0.14 (treatment: DMSO) and 4 ± 0.26 (treatment: MLN4924 1 uM, 8 h).

Consider LKVAAESCKADVVELLLSHADCDR [FEM1B], for which the protein stability index turned out to be 3.16 ± 0.19 (treatment: DMSO) and 3.13 ± 0.36 (treatment: MLN4924 1 uM, 8 h).

For LKYQAPDIDVQLSSELTDSLRTLK [NOP53], the protein stability index came out at 2.79 ± 0.14 (treatment: DMSO) and 3.14 ± 0.45 (treatment: MLN4924 1 uM, 8 h).

Turning to LLAQARDEAQGACLQQKQVVAEAQ [LRRC45], the protein stability index turned out to be 4.847 ± 0.003 (treatment: DMSO) and 4.9 ± 0.087 (treatment: MLN4924 1 uM, 8 h).

LLDDSKTWWRVRNAANRTGYVPSN [NCK2]: the protein stability index came to 2.93 ± 0.23 (treatment: DMSO) and 2.79 ± 0.15 (treatment: MLN4924 1 uM, 8 h).

In the case of LLGTSGLKRRFSRLENRYEALAKQ [DAPK3], the protein stability index is, setting by setting: (treatment: DMSO) 3.04 ± 0.31; (treatment: MLN4924 1 uM, 8 h) 3.06 ± 0.27.

LLHSQARLAELEAQVRKLELERAQ [FBF1]: the protein stability index (treatment: DMSO) amounted to 3.68 ± 0.15 and the protein stability index (treatment: MLN4924 1 uM, 8 h) came to 3.5 ± 0.58.

Regarding LLKQGYNKTLLRLRLRKERVSDVQ [PKD2L1], the protein stability index runs as follows: (treatment: DMSO) 2.35 ± 0.28; (treatment: MLN4924 1 uM, 8 h) 2.44 ± 0.27.

For LLLNNANPNLSNRRGSTPLHMAVE [RIPK4], the protein stability index (treatment: DMSO) worked out at 2.41 ± 0.25 and the protein stability index (treatment: MLN4924 1 uM, 8 h) was 2.73 ± 0.43.

On to LLVSLVTTVVVFVASMVLGECRQM [CLCN6], for which the protein stability index is, setting by setting: (treatment: DMSO) 3.02 ± 0.73; (treatment: MLN4924 1 uM, 8 h) 3 ± 0.94.

As for LMELCRLYHRADVEKVLRRWVDEE [EDARADD], the protein stability index by setting is: (treatment: DMSO) 2.5 ± 0.58; (treatment: MLN4924 1 uM, 8 h) 2.4 ± 0.33.

Consider LNEEINIASSDSEVEIVGVQEHAR [C18orf25], for which the protein stability index was found to be 5.27 ± 0.1 (treatment: DMSO) and 5.33 ± 0.18 (treatment: MLN4924 1 uM, 8 h).

Take LPGRGRVLSSWSRAFVSIQEEMAE [RHOBTB2]: the protein stability index is 3.08 ± 0.54 (treatment: DMSO) and 3.25 ± 0.27 (treatment: MLN4924 1 uM, 8 h).

With LPHLQDSFVDKLLDLMPRLMTSKP [INTS4], the protein stability index reads like this: (treatment: DMSO) 2.16 ± 0.2; (treatment: MLN4924 1 uM, 8 h) 2.15 ± 0.24.

As for LPPDMTVVPGDHLLEPEVADGGGA [KCNA3], the protein stability index is 5.35 ± 0.39 (treatment: DMSO) and 5.42 ± 0.096 (treatment: MLN4924 1 uM, 8 h).

Regarding LPPSPRFLVMKGQEGAASKVLGRL [SLC2A12], the protein stability index reads like this: (treatment: DMSO) 3.34 ± 0.28; (treatment: MLN4924 1 uM, 8 h) 3.48 ± 0.83.
